Experimental data reported in the supplement of paper PMC10567573.

B1: RIPK4 (parent)
chain: VSVNAQTLDGRTPLHLAAQRGHYR

Variants of: B1
Test: protein stability index of a GFP-peptide fusion (GPS, HEK-293T) (PSI 1-6); higher = more stable
Details: c terminus: a fixed tail appended
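Further: lentivirally expressed fusions sorted by FACS into six bins by GFP to DsRed ratio, PSI derived from sequencing read proportions per bin multiplied by bin number.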

Row | Variant | protein stability index
1 | VSVNAQTLDSRTPLHLAAQRGHYR | 3.57
2 | VSVNAQTLDFRTPLHLAAQRGHYR | 2.4
3 | VSVNAQTLDMRTPLHLAAQRGHYR | 3.12
4 | VSVNAQTLDRRTPLHLAAQRGHYR | 3.55
5 | VSVNAQTLDNRTPLHLAAQRGHYR | 3.29
6 | VSVNAQTLDARTPLHLAAQRGHYR | 3.2
7 | VSVNAQTLDIRTPLHLAAQRGHYR | 3.38
8 | VSVNAQTLDDRTPLHLAAQRGHYR | 3.69
9 | VSVNAQTLDLRTPLHLAAQRGHYR | 2.81
10 | VSVNAQTLDTRTPLHLAAQRGHYR | 3.21
11 | VSVNAQTLDKRTPLHLAAQRGHYR | 3.09
12 | VSVNAQTLDHRTPLHLAAQRGHYR | 3
13 | VSVNAQTLDVRTPLHLAAQRGHYR | 3.32
14 | VSVNAQTLDWRTPLHLAAQRGHYR | 2.48
15 | VSVNAQTLDYRTPLHLAAQRGHYR | 2.66
16 | VSVNAQTLDQRTPLHLAAQRGHYR | 3.6
17 | VSVNAQTLDPRTPLHLAAQRGHYR | 3.66
18 | VSVNAQTLDCRTPLHLAAQRGHYR | 3.05
19 | VSVNAQTWDGRTPLHLAAQRGHYR | 3.11
20 | VSVNAQTDDGRTPLHLAAQRGHYR | 3.74
21 | VSVNAQTRDGRTPLHLAAQRGHYR | 3.37
22 | VSVNAQTNDGRTPLHLAAQRGHYR | 3.94
23 | VSVNAQTVDGRTPLHLAAQRGHYR | 3.92
24 | VSVNAQTQDGRTPLHLAAQRGHYR | 4.05

Row | Variant | protein stability index
25 | VSVNAQTSDGRTPLHLAAQRGHYR | 3.5
26 | VSVNAQTHDGRTPLHLAAQRGHYR | 3.73
27 | VSVNAQTMDGRTPLHLAAQRGHYR | 3.75
28 | VSVNAQTPDGRTPLHLAAQRGHYR | 3.95
29 | VSVNAQTIDGRTPLHLAAQRGHYR | 3.58
30 | VSVNAQTADGRTPLHLAAQRGHYR | 3.92
31 | VSVNAQTCDGRTPLHLAAQRGHYR | 3.33
32 | VSVNAQTGDGRTPLHLAAQRGHYR | 4.26
33 | VSVNAQTFDGRTPLHLAAQRGHYR | 3.29
34 | VSVNAQTEDGRTPLHLAAQRGHYR | 4.33
35 | VSVNAQTKDGRTPLHLAAQRGHYR | 3.58
36 | VSVNAQTYDGRTPLHLAAQRGHYR | 3.07
37 | VSVNAQTTDGRTPLHLAAQRGHYR | 3.77
38 | VSVNAQTLDGRTFLHLAAQRGHYR | 2.34
39 | VSVNAQTLDGRTRLHLAAQRGHYR | 3.1
40 | VSVNAQTLDGRTTLHLAAQRGHYR | 2.92
41 | VSVNAQTLDGRTVLHLAAQRGHYR | 2.84
42 | VSVNAQTLDGRTWLHLAAQRGHYR | 1.75
43 | VSVNAQTLDGRTYLHLAAQRGHYR | 1.93
44 | VSVNAQTLDGRTNLHLAAQRGHYR | 3.38
45 | VSVNAQTLDGRTALHLAAQRGHYR | 3.33
46 | VSVNAQTLDGRTHLHLAAQRGHYR | 2.9
47 | VSVNAQTLDGRTQLHLAAQRGHYR | 3.15
48 | VSVNAQTLDGRTCLHLAAQRGHYR | 2.22

Row | Variant | protein stability index
49 | VSVNAQTLDGRTLLHLAAQRGHYR | 2.25
50 | VSVNAQTLDGRTKLHLAAQRGHYR | 2.78
51 | VSVNAQTLDGRTELHLAAQRGHYR | 3.26
52 | VSVNAQTLDGRTSLHLAAQRGHYR | 3.3
53 | VSVNAQTLDGRTGLHLAAQRGHYR | 2.94
54 | VSVNAQTLDGRTMLHLAAQRGHYR | 2.42
55 | VSVNAQTLDGRTDLHLAAQRGHYR | 3.56
56 | VSVNAQTLDGRTILHLAAQRGHYR | 2.17
57 | VSVNAQTLDGRDPLHLAAQRGHYR | 3.68
58 | VSVNAQTLDGRLPLHLAAQRGHYR | 2.89
59 | VSVNAQTLDGRIPLHLAAQRGHYR | 3.1
60 | VSVNAQTLDGRMPLHLAAQRGHYR | 3.19
61 | VSVNAQTLDGRAPLHLAAQRGHYR | 3.48
62 | VSVNAQTLDGRCPLHLAAQRGHYR | 2.81
63 | VSVNAQTLDGRPPLHLAAQRGHYR | 3.54
64 | VSVNAQTLDGREPLHLAAQRGHYR | 3.58
65 | VSVNAQTLDGRKPLHLAAQRGHYR | 3.72
66 | VSVNAQTLDGRHPLHLAAQRGHYR | 2.68
67 | VSVNAQTLDGRYPLHLAAQRGHYR | 2.4
68 | VSVNAQTLDGRRPLHLAAQRGHYR | 3.23
69 | VSVNAQTLDGRSPLHLAAQRGHYR | 3.35
70 | VSVNAQTLDGRNPLHLAAQRGHYR | 2.96
71 | VSVNAQTLDGRFPLHLAAQRGHYR | 2.61
72 | VSVNAQTLDGRWPLHLAAQRGHYR | 2.82

Row | Variant | protein stability index
73 | VSVNAQTLDGRVPLHLAAQRGHYR | 3.13
74 | VSVNAQTLDGRGPLHLAAQRGHYR | 3.05
75 | VSVNAQTLDGRQPLHLAAQRGHYR | 3.57
76 | VSVNAQALDGRTPLHLAAQRGHYR | 3.34
77 | VSVNAQCLDGRTPLHLAAQRGHYR | 2.8
78 | VSVNAQSLDGRTPLHLAAQRGHYR | 3.29
79 | VSVNAQVLDGRTPLHLAAQRGHYR | 3.23
80 | VSVNAQFLDGRTPLHLAAQRGHYR | 2.11
81 | VSVNAQNLDGRTPLHLAAQRGHYR | 3.64
82 | VSVNAQRLDGRTPLHLAAQRGHYR | 3.32
83 | VSVNAQILDGRTPLHLAAQRGHYR | 2.63
84 | VSVNAQLLDGRTPLHLAAQRGHYR | 3.2
85 | VSVNAQPLDGRTPLHLAAQRGHYR | 3.36
86 | VSVNAQWLDGRTPLHLAAQRGHYR | 2.32
87 | VSVNAQDLDGRTPLHLAAQRGHYR | 3.77
88 | VSVNAQMLDGRTPLHLAAQRGHYR | 2.98
89 | VSVNAQGLDGRTPLHLAAQRGHYR | 3.35
90 | VSVNAQKLDGRTPLHLAAQRGHYR | 3.36
91 | VSVNAQELDGRTPLHLAAQRGHYR | 3.94
92 | VSVNAQYLDGRTPLHLAAQRGHYR | 2.97
93 | VSVNAQQLDGRTPLHLAAQRGHYR | 4.04
94 | VSVNAQHLDGRTPLHLAAQRGHYR | 3.12
